Test results as given in publication PMC3280255.

Biological target: FUD, a 56-residue recombinant polypeptide based on the Functional Upstream Domain of the F1 adhesin of Streptococcus pyogenes (Streptococcus pyogenes)
Test: ELISA; competitive enzyme-linked assay: high binding plates coated overnight at 4°C with 10 µg/mL FN; 0.3 nM biotinylated FUD with increasing concentrations of soluble 70K proteins; binding relative to no competitor

Substance | fold decrease in ability to compete, against wildtype 70K
70K I150/242A (Ile-to-Ala mutations in the IGD motifs of 3FNI and 5FNI) (domain or fragment) | 2 fold
70K I480/572A (Ile-to-Ala mutations in the IGD motifs of 7FNI and 9FNI) (domain or fragment) | 2 fold
